# Test results: the DeepSol protein solubility set
# Experiment: soluble on expression in E. coli; label from the status in PepcDB or PDB records
row,Sequence,soluble on expression in E. coli
1,MSNSNKLIAEKNGSRYGRMIHPWLRKKQDMLADTPSRREGMTYEEELSKRQQGGVFIFDIAMQLTHGKGEHGLSGVAATLFNRFFNVHSLKRCDFRDVAAACVFLAGKNEDAPKKLKYVVTQLWQFKYPHNKQFQSEQHFLDQCNVVTLIEDVLLKTISFDINVDLPHQYVLKLMRDVEKGRNVYKDMVKTAYYMATDVLIITDWSVRYSCASIATACVNIAAFFHNINMDDIVPFELSDRWYRLEDQSMTREEVEAMTKEFLDIFSRNPQFHIGSLKKIDPLGKVKIVGMPPQVSSTVTPSGSSSNLKKIDLESYKGRPKPLSNSSDSPSTRPSFLPDVKNQKVVEQELMEQRMKEAAQQKIHRNGHRPSSSSHPLHHHSTSSSASNNSNHQNRSSSGLSAHQHQKPYNEDSRSAKRSMMYEETNSSKKPRIDYKMSFVASSSTTIATMHNDHFSQTTHQQNISTYARGVNEMMLNQVAPPPLMSVSAQPSTYQKMCMEYQRNPADSRHTMSSTQQISPPDEPSPPVSQILLPPPPPPPILPPRLDEMEEGELV,not soluble
2,MSNSSKDADSNLKSTVKPRYLILGSGSIGFALAKELRESNKLVIIVDKDEAKIETLREEGFEAILGDISDPELVNNIDLKNVVAILFLSSNNEANRKGIENFKKVVNPDIQIFSRASDIINKEKMEDLGSDYVFMPSKLVASSLSRSLERAESVHRGNRLARWLKGIRDKKLAIVIHDNPDPDAISSGLALKEIAKSLGVEASILYHGRIGHQENKAFVNLLGIDLGKMEEHDLKDFDEIALIDCSIPGVNNMVPPNSYVGIVIDHHPPGETEIKAEYIDIRPNFGATATIMTKYLQQLNINISKTLATALLYGIRTDTQDFKRKTDPADLSAASYLYPLSNHGILDQLEQPSMAIETLEVLGEAIRNRQVLGSYLLSNVGNIRDRDTLPQAADYLLSLEGISTTVVFGVSEDRIYISGRSTDIRVNLGEIMRQAFGEDAGGHANAAGAQIPLGVFSATKDRQTLLRLVNEAVVKRFLSAVGVESTGE,soluble
3,MSNVAENNDGVYDAPTGITAPPIDELLKHVSSKYALVIFAAKRARQINSYYQQADEGVFEFVGPLVTPEAQEKPLSIAMREIEAGLLDHEEG,not soluble
4,MSNVAKSYKSSDPVIAYCSEHTTIQSPLQAELLKETLDNAPMSMMLGAPEVLTFGQNFIRSFGGRRVIDVGTYTGASALAWALAVPDDGEVFTFDIDHTNYKKFGVPIISKCEKTFKKIRAIEGSALDGLDKLIADGQSGTFDFAFIDADKVNYSNYYDRAVTLLRKGGVIFVDNSLWNGSVCDPARRTEPSTVAIHQANDKIFKDDRTYSALINLGDGTHIAFKK,not soluble
5,MSNVCIVYSSTHHGNTEKVLNKIKEKFPETVLIKAGDFNPDDFNRYEAIGFASGIFYFKFAKPVDKLFEQALVGSVQKLFFIYTAGAVNAGFEKTLRKKTEQSGKICMGIFGCKGFDTFGPLKLIGGLNKNSPNEKDFKNAIDFFEKNIINALEHHHHHH,soluble
6,MSPFGKIAIVGSGLVGSSWATIFASSGYEVQMYDISEKQLQVALENVEKNLRKLDEHGLQRGNLSADEALLRVSTTTSLNEVMKNAIYMQESALEDLNFRIQFYKVIDEIADPTTILASSTSTIPASKFTDGLINKERCLIVHPVNPPLFLPLTELVPAPWTSQDTVDRAAEIMRSVKQEPVKLKKEVLGFVVNRLQFALLAETWRLVADGVIGVNDVDAVMSAGLGPRYAFNGTCETVHLNAFGVRDYFKRYAAGITAVLKDMGPIPDFTDEKVINKLEEELEPKMSTLNIRKHQAEREEKLVEIAKLKKDLNL,not soluble
7,MSPKSVVVTGSNRGLGFGLVQQFLKDPNVQHVIATARDVDKATALKGICDPRLHILQLSLGSDESIANFAEKVSEIVGESGLTLLINNAAVMLPYVTKQKPDRKVVLDLFESNTIGPMMLTQSLVPLIIKASKRQEGDTLSVSRGAIINIASEFLGSISENTSGSGEYKAMAYRMTKCAVNQFTKTLSIDLKDDHILTAGICPGMVQTDMSKGKGQLTIEESSSQILAAFNKLGATHNGGYFRRDLSIIPY,not soluble
8,MSPLNLHTDTTPSLLTFSDVKSFEKIYTMYWARVYATCYNTIKEREVAKEMVQDIFKSLWERKDELEIKTSVEHYLVRAAKFKVFEYIRNKTNQKKHTACALEDYCSATNCTEDAILYSNLTEKVGVLVDRLPCQCRNVYTLSRTEGLTNKEIATRLLISERAVEQHITKALRFLRENLQEYRS,not soluble
9,MSPSIFPPINFLFQNSALLSSFAAQKALSNGHPSGSSLAALEKLSKAFRRPDLHIEKLASSCIDKQKDLKMTNVVPSRNRYGRPYISGRPLLTCDRQKIVECYKKGMKKIHIAKQLGITHSCVSKVLRR,not soluble
10,MSPVVSEASPERWDDETDVLVIGSGAGGLSAALFAAQAGLRVLICEKLAYVGGTTATSGGGIWVPGTKAGLAAGDTLEAARTYLKALLGDFYQEEVIDTYLATGGKVIDFLNENTEVKFDLSSWPDYRSSLPGGATRGRSLFPQPFDGKKLGRNFSLLHPPLHRLMVLGGLMLGPEEVHDFLRPFSSPRALMRVLRKLLRYGMDRIRYARGTDLRSGNALAARLLYSVDKLGCRILTQADLESLAIDHDRVIGATVVVGGVPKRIRASKAVLLATGGFAHNQEMLRRYGPATPHRFSLCNPACTGAGIQAALDAGASVDRELSSVGFWTPASASREKNGADTPVIYGYLDRGRPGVIAVNEQGERFVNEANSYHDIVTAIFANGGADGKPFYFITDREFVRRHGLGLIRPWPWNRSLRPWIRRGYITVASTLDKLGPKIGIDPGALAAAVQRHNQSARTGQDPDFHKGASAYNRMFGHNMTWPNPNLAPIETPPFVALRIHPATIGTAMGLKTSASGQALNAAGQPISGLYACGNNQASPFRGFYPGGGSTLGPAIVGAYLAVQSLSKPLEHHHHHH,soluble
11,MSQESSVLSESQEQLANNPKIEDTSPPSANSRDNSKPVLPWDYKNKAIEIKSFSGYKVNFTGWIRRDVREERQRGSEFTASDVKGSDDKATRKKEPADEDPEVKQLEKEGEDGLDS,soluble
12,MSQFGGGKPPGQWHRPAAPGGAPQLSGFSAVNFGGVPMVGMGVPMGMVNQAAFSSQGVLGMQGIMGAVPQQSLPQQQPNFQQQNSLQQGTNMQQNSGAKNQRTFVGVVTKMLDTYGFVDDDVFFQHSVIRGSHPRVGDKVMVEANYNPSMPFKWNAYRIQLLNAATQQEPARQAPQQQQMHQPQRGGQESQRWGAAPASGTSDRADRNGGARGNDSPLHRSSAARRHSPPPRRASPPRRTSSPKRDARPAREIRDSREPREVRRSPPPRRAASPRKASSPSAPAKNDRKRERSPSGSVAPSVRRESASPPRRRARIIPRYECRAQKPALLSPIVSGSVLRHRYSKLYLPSDYVDLSFDWVRSFQLDLSLDLSNPIQFHVFNKDVDFIGEEEIQDLDPEDADHRHQVKVLLLSHAGKSEVVKKAFCLMADGTTDDHQEPQSLLKNLHFLVGARGKETMGIGGSWSPSQDGADPNSATTMIRTAVRTTKSLTGIDLSSVSQWFSMVQIRYYRADKQRIDHVNYLLPDTQSLALDDAQWMLAETKIAEQLKAKLANVDALKIEEDEPPVVMMVEESESVVAAAAAAADVVPEQSIPDVKKEEELQAEEPKVLDNVKESIVLLWAEESDVVADVSMNSTTDADNSEAPAAENGQGPTNWSNLDPKSMKVAELRVELELRGLETKGIKTLLVQRLQTALDTEKAAEASVAARDVEMRDAAENAVKQEGGEENPAAFIAPSIEETKAKTEAEAKKEAEEAEKRKKKEEQLEKEKKEKREALEKHYQLPKDKKILVFPSKSFKSGKFDCKVLSLSSLLDYRHDDNKENQFEVSLFAEAFKEMIERNAAFTIYETLANCGDRDAEKKRRDEAREKPVEPKEPKEPAETTEKAAEGEEKKDEKEEKRDEKKDEKREEKREKVERIDLKSVVANRTVYEAFSLFDSNLCGYLTEKDIEEILYNGEFGISRGQIQKLAKKLSVRDKINYRHLTDVLTDMDGNVRHTPGGADDVVETDDLIRGFGYNLAKSMEPADSGAAVKSSEVSASSDGVVIINGSAVNVVQKMKLLKQVEKERDEAKSTVSEQLSLIEQLREAKAEIDKKKKDIDSHYHKSNKKLNETSAQLKSTQDENSALKQALQDCKRHADRIFSVVEKVMPPPPKKEEKSKKDEKEKTDKKDDKVSEKSAEKSTEEPSQEVPASAEQAAEPSTEAEPIVIDESEDKDAEVVEESKE,not soluble
13,MSQFISLTQYQLIEVQGADAEKYLQGQLTSDVVRLASGATTLTAHCDPKGKMNAIYRLFKVSSEQFFLLVKKDILPSGLDALKKYAVFSKVSFDLRDWQIIGVIGEKCGKITPNFSLEIDEKRSILLNETELPVNFNGDEKIWEVADIQAGLPNLSPQTQNEFIPQALNLQAIEQAISFTKGCYIGQETVARAKYRGANKRAMFIFKVQTQQEAEIGSEIEMQLEANWRKTGTITSAVNLDGVLWLQVVMNNDIDSEQQFRLLNSEILLERVQLPYSITE,not soluble
14,MSQIISTLNNIDLVTQDKVNLISNMQIQAKYENAEYKSFIDQLIDNLNTTRSIDIYNLFLSLNSEICLNLDTVDNISKIISSYLSILNTNFTRISPSESKQKNQLAEKGINKFLVTMDANFAQMQNQDKLLPNNIDSIIEIVQEVIIFFEKNNLNYNSDFKIQLNKTLRKIKSSLILKDQKNDTYSDKESINQVEATITDQKTIQGSEKWKTLIEKIEVLKALVESERIFETSIVYNDIQNLLVNFDPKEYFPEIFFPLYKKIAPFIGNIHKNIDYYSSSIQWSIAQKMYNIDYKSFLDTLEKMPENNFLNSSSDITKNFFYETSSEVEKTPIEEHKIIADTDAIKEEIVIKQRTNNKKNQNDPVEKISNKIDEDYFEDLFDI,not soluble
15,MSQISIILPTYNVEKYIARALESCINQTFKDIEIIVVDDCGNDKSIDIAKEYASKDDRIKIIHNEENLKLLRARYEGAKVATSPYIMFLDSDDYLELNACEECIKILDMGGGGKIDLLCFEAFITNAKKSIKKLNIKQGKYNNKEFTMQILKTKNPFWTMWAKIIKKDIYLKAFNMLNLKKEIKINMAEDALLYYPLTILSNEIFYLTQPLYTQHVNSNSITNNINSLEANIQEHKIVLNVLKSIKNKKTPLYFLIIYLLKIQLLKYEQNFNKRNINLIYYKINILYQKYQFKWKKFLYNLIP,not soluble
16,MSQLINLPMDQILYLSTSDIKHHVHLQTIHTLMDIRANLADFKKIHKKLYPCHRSYIVNTDMIISVNKTNYEATLINGQVLPVSRMKIGKIAQIVEERGRLEHHHHHH,not soluble
17,MSQLMQLKDVAESTRLGPLSGEVSAGEILHLVGPNGAGKSTLLARMAGLTSGEGSIRFGGAPLEAWATATLAQHRAYLAQQQNPPFAMPVWHYLTLHQPDKTRTGQLNEVADMLGLGDKLGRSVNQLSGGEWQRVRLAAVVLQIHPDANPVGQLLLLDEPMNSLDVAQQNALDRVLHHLCQAGIAIVMSSHDLNHTLRHAHKAWLLKRGKLIACGRREEVLTPSYLAQAYGLRFRRLDVEGHPMLISAT,not soluble
18,MSQLPGLSRETRESIAMYHLRVPQTEEELERYYQFRWEMLRKPLHQPKGSERDAWDAMAHHQMVVDEQGNLVAVGRLYINADNEASIRFMAVHPDVQDKGLGTLMAMTLESVARQEGVKRVTCSAREDAVEFFAKLGFVNQGEITTPTTTPIRHFLMIKPVATLDDILHRGDWCAQLQQAWYEHIPLSEKMGVRIQQYTGQKFITTMPETGNQNPHHTLFAGSLFSLATLTGWGLIWLMLRERHLGGTIILADAHIRYSKPISGKPHAVADLGALSGDLDRLARGRKARVQMQVEIFGDETPGAVFEGTYIVLPAKPFGPYEEGGNEEELEHHHHHH,not soluble
19,MSQLRADKKGTHRVAFDRNKKKLLKAATVCGICGKPVDKSLKYPHPLSAAIDHIVPIAKGGHPSALENLQLTHWQCNRQKSDKLFANQASNEPKTIGNRNLPQSRDWSSFAFKKLEHHHHHH,soluble
